One assay addresses T1, human PAC1 receptor (human, UniProt P41586 21-468).
T1 sequence: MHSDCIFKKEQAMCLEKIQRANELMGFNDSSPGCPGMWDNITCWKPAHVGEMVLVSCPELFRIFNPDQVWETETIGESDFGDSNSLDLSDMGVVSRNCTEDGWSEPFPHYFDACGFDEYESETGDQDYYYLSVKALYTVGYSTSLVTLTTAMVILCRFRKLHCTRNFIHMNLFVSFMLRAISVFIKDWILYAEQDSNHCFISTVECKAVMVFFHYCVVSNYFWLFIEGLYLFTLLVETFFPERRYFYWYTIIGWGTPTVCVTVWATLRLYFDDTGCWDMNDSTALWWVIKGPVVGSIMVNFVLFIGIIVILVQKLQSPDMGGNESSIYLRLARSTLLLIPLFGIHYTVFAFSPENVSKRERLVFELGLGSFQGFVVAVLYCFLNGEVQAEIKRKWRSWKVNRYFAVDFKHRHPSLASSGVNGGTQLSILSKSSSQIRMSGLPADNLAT
Kind of assay: cell-based or functional assay.

The next assay addresses human CGRP receptor (human, UniProt Q16602 23-461; O60894 27-148). Description: cell-based or functional assay.

These results are taken from patent publication US20170306033A1 (Amgen, published 2017).

Chain of human CGRP receptor (Q16602 23-461 limits assumed, chain 1 of 2): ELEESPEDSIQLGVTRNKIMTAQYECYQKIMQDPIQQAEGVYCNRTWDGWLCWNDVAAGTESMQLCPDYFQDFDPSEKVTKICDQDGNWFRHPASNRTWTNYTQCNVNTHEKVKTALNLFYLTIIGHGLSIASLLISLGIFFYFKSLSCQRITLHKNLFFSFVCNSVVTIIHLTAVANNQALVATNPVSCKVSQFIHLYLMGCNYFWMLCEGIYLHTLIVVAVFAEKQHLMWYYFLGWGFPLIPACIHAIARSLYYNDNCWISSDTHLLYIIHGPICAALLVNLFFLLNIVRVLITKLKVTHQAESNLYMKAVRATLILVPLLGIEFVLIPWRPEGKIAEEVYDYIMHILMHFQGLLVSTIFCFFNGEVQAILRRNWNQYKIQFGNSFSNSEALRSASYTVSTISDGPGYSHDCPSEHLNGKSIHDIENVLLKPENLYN
Chain of human CGRP receptor (O60894 27-148 limits assumed, chain 2 of 2): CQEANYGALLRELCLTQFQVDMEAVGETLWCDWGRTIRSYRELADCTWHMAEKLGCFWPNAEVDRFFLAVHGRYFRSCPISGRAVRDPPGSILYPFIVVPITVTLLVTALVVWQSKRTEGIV

B1: iPS:328050 (bispecific antibody, human IgG1, kappa, lambda, N297G)
light 1: DIQMTQSPSSLSASVGDRITITCRASQSISRYLNWYQQKPGKAPKLLIYAASSLQSGIPSRFSGSGSGTDFTLTINSLQPEDFATYFCQQSYSPPFTFGQGTKVDIKRTVAAPSVFIFPPSDEQLKSGTASVVCLLNNFYPREAKVQWKVDNALQSGNSQESVTEQDSKDSTYSLESTLTLSKADYEKHKVYACEVTHQGLSSPVTKSFNRGEC
heavy 1: not shown
light 2: QSVLTQPPSVSAAPGQKVTISCSGSSSNIGNNYVSWYQQLPGTAPKLLIYDNNKRPSGIPDRFSGSKSGTSTTLGITGLQTGDEADYYCGTWDSRLSAVVFGGGTKLTVLGQPKANPTVTLFPPSSEELQANKATLVCLISDFYPGAVTVAWKADGSPVKAGVETTKPSKQSNNKYAAKSYLSLTPEQWKSHRSYSCQVTHEGSTVEKTVAPTECS
heavy 2: QVQLVESGGGVVQPGRSLRLSCAASGFTFSSFGMHWVRQAPGKGLEWVAVISFDGSIKYSVDSVKGRFTISRDNSKNTLFLQMNSLRAEDTAVYYCARDRLNYYDSSGYYHYKYYGMAVWGQGTTVTVSSASTKGPSVFPLAPSSKSTSGGTAALGCLVKDYFPEPVTVSWNSGALTSGVHTFPAVLQSSGLYSLESVVTVPSSSLGTQTYICNVNHKPSNTKVDKKVEPKSCDKTHTCPPCPAPELLGGPSVFLFPPKPKDTLMISRTPEVTCVVVDVSHEDPEVKFNWYVDGVEVHNAKTKPCEEQYGSTYRCVSVLTVLHQDWLNGKEYKCKVSNKALPAPIEKTISKAKGQPREPQVYTLPPSRKKMTKNQVSLTCLVKGFYPSDIAVEWESNGQPENNYKTTPPVLKSDGSFFLYSKLTVDKSRWQQGNVFSCSVMHEALHNHYTQKSLSLSPGK
In the case of B1, the “% inhibition of human PAC1” value with human PAC1 receptor was found to be 11%. Further, the “% inhibition of human CGRPR” value with human CGRP receptor was found to be 80%.

B2: iPS:328051 (bispecific antibody, human IgG1, kappa, lambda, N297G)
light 1: not shown
heavy 1: not shown
light 2: QSVLTQPPSVSAAPGQKVTISCSGSSSNIGNNYVSWYQQLPGTAPKLLIYDNNKRPSGIPDRFSGSKSGTSTTLGITGLQTGDEADYYCGTWDSRLSAVVFGGGTKLTVLGQPKANPTVTLFPPSSEELQANKATLVCLISDFYPGAVTVAWKADGSPVKAGVETTKPSKQSNNKYAAKSYLSLTPEQWKSHRSYSCQVTHEGSTVEKTVAPTECS
heavy 2: QVQLVESGGGVVQPGRSLRLSCAASGFTFSSFGMHWVRQAPGKGLEWVAVISFDGSIKYSVDSVKGRFTISRDNSKNTLFLQMNSLRAEDTAVYYCARDRLNYYDSSGYYHYKYYGMAVWGQGTTVTVSSASTKGPSVFPLAPSSKSTSGGTAALGCLVKDYFPEPVTVSWNSGALTSGVHTFPAVLQSSGLYSLESVVTVPSSSLGTQTYICNVNHKPSNTKVDKKVEPKSCDKTHTCPPCPAPELLGGPSVFLFPPKPKDTLMISRTPEVTCVVVDVSHEDPEVKFNWYVDGVEVHNAKTKPCEEQYGSTYRCVSVLTVLHQDWLNGKEYKCKVSNKALPAPIEKTISKAKGQPREPQVYTLPPSRKKMTKNQVSLTCLVKGFYPSDIAVEWESNGQPENNYKTTPPVLKSDGSFFLYSKLTVDKSRWQQGNVFSCSVMHEALHNHYTQKSLSLSPGK
Regarding B2, the “% inhibition of human PAC1” value with human PAC1 receptor was found to be 21%. In the assay with human CGRP receptor, the “% inhibition of human CGRPR” value worked out at 77%.

B3: iPS:328049 (bispecific antibody, human IgG1, kappa, lambda, N297G)
light 1: not shown
heavy 1: not shown
light 2: QSVLTQPPSVSAAPGQKVTISCSGSSSNIGNNYVSWYQQLPGTAPKLLIYDNNKRPSGIPDRFSGSKSGTSTTLGITGLQTGDEADYYCGTWDSRLSAVVFGKGTKLTVLGQPKANPTVTLFPPSSEELQANKATLVCLISDFYPGAVTVAWKADGSPVKAGVETTKPSKQSNNKYAAKSYLSLTPEQWKSHRSYSCQVTHEGSTVEKTVAPTECS
heavy 2: QVQLVESGGGVVQPGRSLRLSCAASGFTFSSFGMHWVRQAPGKELEWVAVISFDGSIKYSVDSVKGRFTISRDNSKNTLFLQMNSLRAEDTAVYYCARDRLNYYDSSGYYHYKYYGMAVWGQGTTVTVSSASTKGPSVFPLAPSSKSTSGGTAALGCLVKDYFPEPVTVSWNSGALTSGVHTFPAVLQSSGLYSLESVVTVPSSSLGTQTYICNVNHKPSNTKVDKKVEPKSCDKTHTCPPCPAPELLGGPSVFLFPPKPKDTLMISRTPEVTCVVVDVSHEDPEVKFNWYVDGVEVHNAKTKPCEEQYGSTYRCVSVLTVLHQDWLNGKEYKCKVSNKALPAPIEKTISKAKGQPREPQVYTLPPSRKEMTKNQVSLTCLVKGFYPSDIAVEWESNGQPENNYKTTPPVLKSDGSFFLYSKLTVDKSRWQQGNVFSCSVMHEALHNHYTQKSLSLSPGK
Take B3: in the assay with human PAC1 receptor, the “% inhibition of human PAC1” value is 13%. In addition, the “% inhibition of human CGRPR” value with human CGRP receptor worked out at 92%.

B4: iPS:328048 (bispecific antibody, human IgG1, kappa, lambda, N297G)
light 1: not shown
heavy 1: not shown
light 2: QSVLTQPPSVSAAPGQKVTISCSGSSSNIGNNYVSWYQQLPGTAPKLLIYDNNKRPSGIPDRFSGSKSGTSTTLGITGLQTGDEADYYCGTWDSRLSAVVFGGGTKLTVLGQPKANPTVTLFPPSSEELQANKATLVCLISDFYPGAVTVAWKADGSPVKAGVETTKPSKQSNNKYAAKSYLSLTPEQWKSHRSYSCQVTHEGSTVEKTVAPTECS
heavy 2: QVQLVESGGGVVQPGRSLRLSCAASGFTFSSFGMHWVRQAPGKGLEWVAVISFDGSIKYSVDSVKGRFTISRDNSKNTLFLQMNSLRAEDTAVYYCARDRLNYYDSSGYYHYKYYGMAVWGQGTTVTVSSASTKGPSVFPLAPSSKSTSGGTAALGCLVKDYFPEPVTVSWNSGALTSGVHTFPAVLQSSGLYSLESVVTVPSSSLGTQTYICNVNHKPSNTKVDKKVEPKSCDKTHTCPPCPAPELLGGPSVFLFPPKPKDTLMISRTPEVTCVVVDVSHEDPEVKFNWYVDGVEVHNAKTKPCEEQYGSTYRCVSVLTVLHQDWLNGKEYKCKVSNKALPAPIEKTISKAKGQPREPQVYTLPPSRKEMTKNQVSLTCLVKGFYPSDIAVEWESNGQPENNYKTTPPVLKSDGSFFLYSKLTVDKSRWQQGNVFSCSVMHEALHNHYTQKSLSLSPGK
For B4, the “% inhibition of human PAC1” value with human PAC1 receptor is 9%. In addition, the “% inhibition of human CGRPR” value in the assay with human CGRP receptor was 69%.

B5: iPS:327017 (bispecific antibody, human IgG1, kappa, N297G)
light 1: not shown
heavy 1: not shown
light 2: EIVLTQSPGTLSLSPGERATLSCRASQSVSSGYLTWYQQKPGQAPRLLIYGASSRATGIPDRFSGSGSGTDFTLTISRLEPEDFAVYYCQQYGNSLSRFGQGTKLEIKRTVAAPSVFIFPPSDEQLKSGTASVVCLLNNFYPREAKVQWKVDNALQSGNSQESVTEQDSKDSTYSLKSTLTLSKADYEKHKVYACEVTHQGLSSPVTKSFNRGEC
heavy 2: not shown
As to B5, the “% inhibition of human PAC1” value with human PAC1 receptor was 27%. Further, in the assay with human CGRP receptor, the “% inhibition of human CGRPR” value was determined as 67%.

B6: iPS:327018 (bispecific antibody, human IgG1, kappa, N297G)
light 1: DIQLTQSPSFLSASVGDRVTITCRASQSIGRSLHWYQQKPGKAPKLLIKYASQSLSGVPSRFSGSGSGTEFTLTISSLQPEDFATYYCHQSSRLPFTFGPGTKVDIKRTVAAPSVFIFPPSDEQLKSGTASVVCLLNNFYPREAKVQWKVDNALQSGNSQESVTEQDSKDSTYSLESTLTLSKADYEKHKVYACEVTHQGLSSPVTKSFNRGEC
heavy 1: not shown
light 2: EIVLTQSPGTLSLSPGERATLSCRASQSVSSGYLTWYQQKPGQAPRLLIYGASSRATGIPDRFSGSGSGTDFTLTISRLEPEDFAVYYCQQYGNSLSRFGQGTKLEIKRTVAAPSVFIFPPSDEQLKSGTASVVCLLNNFYPREAKVQWKVDNALQSGNSQESVTEQDSKDSTYSLKSTLTLSKADYEKHKVYACEVTHQGLSSPVTKSFNRGEC
heavy 2: not shown
B6: the “% inhibition of human PAC1” value with human PAC1 receptor stood at 17%. The “% inhibition of human CGRPR” value in the assay with human CGRP receptor amounted to 68%.

B7: iPS:326648 (bispecific antibody, human IgG2, kappa, lambda)
light 1: EIVLTQSPATLSLSPGERATLSCRASQSVGRSLHWYQQKPGQAPRLLIKYASQSLSGIPARFSGSGSGTDFTLTISSLEPEDFAVYYCHQSSRLPFTFGPGTKVDIKRTVAAPSVFIFPPSDEQLKSGTASVVCLLNNFYPREAKVQWKVDNALQSGNSQESVTEQDSKDSTYSLESTLTLSKADYEKHKVYACEVTHQGLSSPVTKSFNRGEC
heavy 1: QVQLVESGGGVVQPGRSLRLSCAASGFTFSRFAMHWVRQAPGKGLEWVAVISYDGGNKYYAESVKGRFTISRDNSKNTLYLQMNSLRAEDTALFYCARGYDVLTGYPDYWGQGTLVTVSSASTKGPSVFPLAPCSRSTSESTAALGCLVKDYFPEPVTVSWNSGALTSGVHTFPAVLQSSGLYSLKSVVTVPSSNFGTQTYTCNVDHKPSNTKVDKTVERKCCVECPPCPAPPVAGPSVFLFPPKPKDTLMISRTPEVTCVVVDVSHEDPEVQFNWYVDGVEVHNAKTKPREEQFNSTFRVVSVLTVVHQDWLNGKEYKCKVSNKGLPAPIEKTISKTKGQPREPQVYTLPPSREEMTKNQVSLTCLVDGFYPSDIAVEWESNGQPENNYDTTPPMLDSDGSFFLYSDLTVDKSRWQQGNVFSCSVMHEALHNHYTQKSLSLSPGK
light 2: not shown
heavy 2: not shown
Regarding B7, the “% inhibition of human PAC1” value in the assay with human PAC1 receptor worked out at 92%. For the same molecule, the “% inhibition of human CGRPR” value with human CGRP receptor turned out to be 73%.

B8: iPS:327026 (bispecific antibody, human IgG1, kappa, N297G)
light 1: EIVLTQSPATLSLSPGERATLSCRASQSVGRSLHWYQQKPGQAPRLLIKYASQSLSGIPARFSGSGSGTDFTLTISSLEPEDFAVYYCHQSSRLPFTFGEGTKVDIKRTVAAPSVFIFPPSDEQLKSGTASVVCLLNNFYPREAKVQWKVDNALQSGNSQESVTEQDSKDSTYSLESTLTLSKADYEKHKVYACEVTHQGLSSPVTKSFNRGEC
heavy 1: not shown
light 2: EIVLTQSPGTLSLSPGERATLSCRASQSVSSGYLTWYQQKPGQAPRLLIYGASSRATGIPDRFSGSGSGTDFTLTISRLEPEDFAVYYCQQYGNSLSRFGKGTKLEIKRTVAAPSVFIFPPSDEQLKSGTASVVCLLNNFYPREAKVQWKVDNALQSGNSQESVTEQDSKDSTYSLKSTLTLSKADYEKHKVYACEVTHQGLSSPVTKSFNRGEC
heavy 2: not shown
With B8, the “% inhibition of human PAC1” value with human PAC1 receptor worked out at 78%. Moreover, the “% inhibition of human CGRPR” value in the assay with human CGRP receptor was found to be 81%.

B9: iPS:327019 (bispecific antibody, human IgG1, kappa, N297G)
light 1: EIVLTQSPATLSLSPGERATLSCRASQSVGRSLHWYQQKPGQAPRLLIKYASQSLSGIPARFSGSGSGTDFTLTISSLEPEDFAVYYCHQSSRLPFTFGPGTKVDIKRTVAAPSVFIFPPSDEQLKSGTASVVCLLNNFYPREAKVQWKVDNALQSGNSQESVTEQDSKDSTYSLESTLTLSKADYEKHKVYACEVTHQGLSSPVTKSFNRGEC
heavy 1: not shown
light 2: EIVLTQSPGTLSLSPGERATLSCRASQSVSSGYLTWYQQKPGQAPRLLIYGASSRATGIPDRFSGSGSGTDFTLTISRLEPEDFAVYYCQQYGNSLSRFGQGTKLEIKRTVAAPSVFIFPPSDEQLKSGTASVVCLLNNFYPREAKVQWKVDNALQSGNSQESVTEQDSKDSTYSLKSTLTLSKADYEKHKVYACEVTHQGLSSPVTKSFNRGEC
heavy 2: not shown
On to B9, for which the “% inhibition of human PAC1” value with human PAC1 receptor amounted to 79%. The “% inhibition of human CGRPR” value in the assay with human CGRP receptor stood at 65%.
